One molecule from paper PMC6451097, “YB-1, an abundant core mRNA-binding protein, has the capacity to form an RNA nucleoprotein filament: a structural analysis” can be followed below.

For one data set, the target named is YB-1 CSD (Homo sapiens, UniProt P67809 52-129). Nature of the data set: NMR HSQC; 1:1; EMSA: 20 mM Hepes pH 7.5, 40 mM KCl, room temp, 5 min (SSB: 20 mM Tris-HCl pH 7.6, 300 mM KCl, 37 C, 15 min); NMR: 100 uM protein, 1:1 oligo, 298 K (RNA 298 and 303 K), NMR buffer not in material. Particulars: protein: recombinant. (In general: Mobility shift assays separate free from complexed probe on a gel.)
Sequence of YB-1 CSD (P67809 52-129): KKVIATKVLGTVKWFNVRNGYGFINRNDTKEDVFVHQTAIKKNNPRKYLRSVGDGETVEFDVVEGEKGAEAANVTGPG

The target of the next data set is YB-1C (Homo sapiens, UniProt P67809 1-180). Nature of the data set: NMR HSQC; 1:1; monomer; EMSA: 20 mM Hepes pH 7.5, 40 mM KCl, room temp, 5 min (SSB: 20 mM Tris-HCl pH 7.6, 300 mM KCl, 37 C, 15 min); NMR: 100 uM protein, 1:1 oligo, 298 K (RNA 298 and 303 K), NMR buffer not in material. To be noted: protein: recombinant; tags: His-tag (pET22b); untagged version also used.
Sequence of YB-1C (P67809 1-180): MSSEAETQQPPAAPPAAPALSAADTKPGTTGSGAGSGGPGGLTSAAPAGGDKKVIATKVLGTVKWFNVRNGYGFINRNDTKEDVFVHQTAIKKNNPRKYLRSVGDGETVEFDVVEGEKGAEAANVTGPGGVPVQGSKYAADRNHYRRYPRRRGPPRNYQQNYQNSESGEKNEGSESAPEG

B1: dC10 (ssDNA)
DNA: CCCCCCCCCC
For B1, the binding result in the data set with YB-1 CSD and in the data set with YB-1C was “binds” in each case.
